Target: T1, HA-tetherin (wild type), Q10589
T1 chain: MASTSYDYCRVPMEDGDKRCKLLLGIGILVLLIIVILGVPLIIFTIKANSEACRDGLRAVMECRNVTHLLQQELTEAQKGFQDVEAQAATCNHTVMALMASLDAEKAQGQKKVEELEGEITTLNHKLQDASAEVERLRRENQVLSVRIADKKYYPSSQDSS
Assay: non-reducing SDS-PAGE and immunoblot; lysates of HEK293 cells transfected with HA-tetherin with or without SHBs plasmids; SDS-PAGE in the absence or presence of 2-mercaptoethanol, blot with anti-HA; dimer and monomer bands
Conditions: remark: other sources report otherwise

B1: HA-tetherin (wild type), Q10589 1-161 (natural protein)
chain: T1 chain
stoichiometry N: 2

Reference: PMC4673130
